In patent publication US20040059519A1:
Where “and” joins values, the source holds several entries; their conditions need not be identical. Equal values may be shown once.

Columns and labels:
Alpha fetoprotein [1] = target: Alpha fetoprotein (UniProt P02771); assay: multiplex sandwich, S10473 capture beads; AFP 2 ng/mL, washed
Alpha fetoprotein [2] = target: Alpha fetoprotein (UniProt P02771); assay: multiplex sandwich, S10473 capture beads; AFP 8 ng/mL, washed
Alpha fetoprotein [3] = target: Alpha fetoprotein (UniProt P02771); assay: multiplex sandwich, S10473 capture beads; AFP 0 ng/mL, no wash
Alpha fetoprotein [4] = target: Alpha fetoprotein (UniProt P02771); assay: multiplex sandwich, S10473 capture beads; AFP 250 ng/mL, washed
Alpha fetoprotein [5] = target: Alpha fetoprotein (UniProt P02771); assay: multiplex sandwich, S10473 capture beads; AFP 500 ng/mL, washed
Alpha fetoprotein [6] = target: Alpha fetoprotein (UniProt P02771); assay: multiplex sandwich, S10473 capture beads; AFP 1000 ng/mL, washed
Alpha fetoprotein [7] = target: Alpha fetoprotein (UniProt P02771); assay: multiplex sandwich, S10473 capture beads; AFP 125 ng/mL, no wash
Alpha fetoprotein [8] = target: Alpha fetoprotein (UniProt P02771); assay: anti-AFP capture beads, flow cytometry; AFP 0.1 ng/mL, anti-AFP probe
Alpha fetoprotein [9] = target: Alpha fetoprotein (UniProt P02771); assay: anti-AFP capture beads, flow cytometry; AFP 1.0 ng/mL, anti-AFP probe
[10] = target: Human chorionic gonadotropin (human) (UniProt P01215); assay: anti-AFP capture beads, flow cytometry; hCG 0.0 ng/mL, anti-AFP probe
Chain of UniProt P01215 (P01215 25-116, chain 1 of 2, other chains not shown): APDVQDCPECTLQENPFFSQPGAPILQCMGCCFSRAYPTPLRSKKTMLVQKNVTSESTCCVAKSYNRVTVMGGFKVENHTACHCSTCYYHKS

[11] = target: Human chorionic gonadotropin (human) (UniProt P01215); assay: MAB602 capture beads, flow cytometry; hCG 1000.0 ng/mL, anti-AFP probe
Alpha fetoprotein [12] = target: Alpha fetoprotein (UniProt P02771); assay: multiplex no-wash sandwich, S10473 beads; serum Level 3D, AFP 111.5 U/mL
[13] = target: Neutravidin (deglycosylated avidin) (UniProt P02701); assay: multiplex, Neutravidin bead 40/40 without peptide, flow cytometry
Chain of UniProt P02701 (P02701 25-152 limits assumed): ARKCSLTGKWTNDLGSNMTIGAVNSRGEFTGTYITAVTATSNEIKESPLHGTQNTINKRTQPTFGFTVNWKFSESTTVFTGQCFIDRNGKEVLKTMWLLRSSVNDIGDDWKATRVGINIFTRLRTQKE

[14] = target: Neutravidin (deglycosylated avidin) (UniProt P02701); assay: multiplex, Neutravidin bead 70/40 without peptide, flow cytometry
Peptide 1 …-biotin = assay: single-analyte peptide bead, flow cytometry; MAB 384-Bodipy 15.5 ug/mL
Peptide 2 …-biotin = assay: as above
Peptide 3 …-biotin = assay: as above
Peptide 4 …-biotin = assay: as above
[15] = target: Peptide 5 …-biotin (human); assay: as above
Peptide 6 …-biotin = assay: as above
Peptide 7 …-biotin = assay: as above
Peptide 8 …-biotin = assay: as above
Peptide 9 …-biotin = assay: as above
[16] = target: Neutravidin (deglycosylated avidin) (UniProt P02701); assay: single-analyte, Neutravidin bead 40/70 without peptide, flow cytometry
[17] = target: Human chorionic gonadotropin (human) (UniProt P01215); assay: sandwich, MAB602 capture beads, flow cytometry; hCG 0 ng/mL
[18] = target: Human chorionic gonadotropin (human) (UniProt P01215); assay: sandwich, MAB602 capture beads, flow cytometry; hCG 2 ng/mL
[19] = target: Human chorionic gonadotropin (human) (UniProt P01215); assay: sandwich, MAB602 capture beads, flow cytometry; hCG 20 ng/mL
[20] = target: Human chorionic gonadotropin (human) (UniProt P01215); assay: multiplex sandwich, MAB602 capture beads; hCG 8 ng/mL, washed
[21] = target: Human chorionic gonadotropin (human) (UniProt P01215); assay: multiplex sandwich, MAB602 capture beads; hCG 4 ng/mL, no wash
[22] = target: Human chorionic gonadotropin (human) (UniProt P01215); assay: multiplex sandwich, MAB602 capture beads; hCG 125 ng/mL, washed
[23] = target: Human chorionic gonadotropin (human) (UniProt P01215); assay: multiplex sandwich, MAB602 capture beads; hCG 500 ng/mL, washed
[24] = target: Human chorionic gonadotropin (human) (UniProt P01215); assay: multiplex sandwich, MAB602 capture beads; hCG 1000 ng/mL, washed
[25] = target: Human chorionic gonadotropin (human) (UniProt P01215); assay: multiplex sandwich, MAB602 capture beads; hCG 2000 ng/mL, washed
Alpha fetoprotein [26] = target: Alpha fetoprotein (UniProt P02771); assay: MAB602 capture beads, flow cytometry; AFP 100.0 ng/mL, anti-hCG probe
[27] = target: Human chorionic gonadotropin (human) (UniProt P01215); assay: MAB602 capture beads, flow cytometry; hCG 100.0 ng/mL, anti-hCG probe
Alpha fetoprotein [28] = target: Alpha fetoprotein (UniProt P02771); assay: anti-AFP capture beads, flow cytometry; AFP 0.0 ng/mL, anti-hCG probe
Alpha fetoprotein [29] = target: Alpha fetoprotein (UniProt P02771); assay: MAB602 capture beads, flow cytometry; AFP 1000.0 ng/mL, anti-hCG probe
Alpha fetoprotein [30] = target: Alpha fetoprotein (UniProt P02771); assay: anti-AFP capture beads, flow cytometry; AFP 10.0 ng/mL, anti-hCG probe
Alpha fetoprotein [31] = target: Alpha fetoprotein (UniProt P02771); assay: anti-AFP capture beads, flow cytometry; AFP 100.0 ng/mL, anti-hCG probe
[32] = target: Human chorionic gonadotropin (human) (UniProt P01215); assay: multiplex no-wash sandwich, MAB602 beads; serum Level 1, hCG 22.8 mU/mL
Alpha fetoprotein [33] = target: Alpha fetoprotein (UniProt P02771); assay: anti-AFP capture beads, flow cytometry; AFP 1000.0 ng/mL, anti-hCG probe

Chain of UniProt P02771 (P02771 19-609 limits assumed): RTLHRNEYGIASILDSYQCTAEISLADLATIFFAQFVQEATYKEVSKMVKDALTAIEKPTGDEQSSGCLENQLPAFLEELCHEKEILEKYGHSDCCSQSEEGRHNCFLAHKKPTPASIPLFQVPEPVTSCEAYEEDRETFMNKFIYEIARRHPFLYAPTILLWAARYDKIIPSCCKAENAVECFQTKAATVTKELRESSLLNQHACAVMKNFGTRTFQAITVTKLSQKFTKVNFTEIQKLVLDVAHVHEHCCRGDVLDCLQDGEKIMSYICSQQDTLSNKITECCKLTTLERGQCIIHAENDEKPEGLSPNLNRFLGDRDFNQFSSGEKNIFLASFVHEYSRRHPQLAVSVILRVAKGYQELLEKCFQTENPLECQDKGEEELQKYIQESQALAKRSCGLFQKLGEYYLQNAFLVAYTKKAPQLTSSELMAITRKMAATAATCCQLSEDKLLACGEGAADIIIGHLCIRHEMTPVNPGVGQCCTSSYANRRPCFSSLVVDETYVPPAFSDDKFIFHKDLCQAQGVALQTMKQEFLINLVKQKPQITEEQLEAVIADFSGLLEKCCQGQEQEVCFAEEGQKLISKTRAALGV

M20077 affinity purified polyclonal anti-AFP antibody, Bodipy FL-CASE labeled
MIF of Fm (Alpha fetoprotein [1]): 59 | MIF of Fm (Alpha fetoprotein [2]): 205 | MIF of Fm (Alpha fetoprotein [3]): 15 | MIF of Fm (Alpha fetoprotein [4]): 1200 | MIF of Fm (Alpha fetoprotein [5]): 1380 | MIF of Fm (Alpha fetoprotein [6]): 1480 | MIF of Fm (Alpha fetoprotein [7]): 1060 | MIF of Fm (Alpha fetoprotein [8]): 44 | MIF of Fm (Alpha fetoprotein [9]): 98 | MIF of Fm [10]: 45 | MIF of Fm [11]: 47 | MIF AVG (Alpha fetoprotein [12]): 552 | MIF of FL1 (Alpha fetoprotein [12]): 535 and 562 and 559

MAB 384, Bodipy FL-X labeled (antibody)
MIF of Fm [13]: 25 | MIF of Fm [14]: 21 | MIF of Fm (Peptide 1 …-biotin): 72 | MIF of Fm (Peptide 2 …-biotin): 57 | MIF of Fm (Peptide 3 …-biotin): 47 | MIF of Fm (Peptide 4 …-biotin): 57 | MIF of Fm [15]: 1380 | MIF of Fm (Peptide 6 …-biotin): 43 | MIF of Fm (Peptide 7 …-biotin): 42 | MIF of Fm (Peptide 8 …-biotin): 73 | MIF of Fm (Peptide 9 …-biotin): 60 | MIF of Fm [16]: 43

AB633 affinity purified polyclonal anti-hCG antibody, Bodipy FL-CASE labeled
MIF of Fm [17]: 128 and 111 | MIF of Fm [18]: 1290 and 1380 | MIF of Fm [19]: 8500 and 8660 | MIF of Fm [20]: 1960 | MIF of Fm [21]: 1120 | MIF of Fm [22]: 2950 | MIF of Fm [23]: 3340 | MIF of Fm [24]: 3160 | MIF of Fm [25]: 3190 | MIF of Fm (Alpha fetoprotein [26]): 47 | MIF of Fm [27]: 761 | MIF of Fm (Alpha fetoprotein [28]): 61 | MIF of Fm (Alpha fetoprotein [29]): 53 | MIF of Fm (Alpha fetoprotein [30]): 44 | MIF of Fm (Alpha fetoprotein [31]): 75 | MIF AVG [32]: 25.7 | MIF of FL1 [32]: 23 and 27 | MIF of Fm (Alpha fetoprotein [33]): 57
